In patent US20040059519A1:
“And” between values parts separate entries of the source, which are not always exact repeats. Identical values can stand only once. Blank lines part the entries; values can stand above or below the substance they belong to.

Assays:
[1] = target: Human chorionic gonadotropin (human) (UniProt P01215); assay: sandwich, MAB602 capture beads, flow cytometry; hCG 0.2 ng/mL
[2] = target: Human chorionic gonadotropin (human) (UniProt P01215); assay: multiplex sandwich, MAB602 capture beads; hCG 1 ng/mL, no wash
[3] = target: Human chorionic gonadotropin (human) (UniProt P01215); assay: multiplex sandwich, MAB602 capture beads; hCG 16 ng/mL, washed
[4] = target: Human chorionic gonadotropin (human) (UniProt P01215); assay: multiplex sandwich, MAB602 capture beads; hCG 4 ng/mL, no wash
[5] = target: Human chorionic gonadotropin (human) (UniProt P01215); assay: bead sandwich, flow cytometry; capture A1 beads, hCG 20.0 ug/mL
[6] = target: Human chorionic gonadotropin (human) (UniProt P01215); assay: multiplex sandwich, MAB602 capture beads; hCG 0.5 ng/mL, washed
[7] = target: Human chorionic gonadotropin (human) (UniProt P01215); assay: multiplex sandwich, MAB602 capture beads; hCG 16 ng/mL, no wash
[8] = target: Human chorionic gonadotropin (human) (UniProt P01215); assay: multiplex sandwich, MAB602 capture beads; hCG 31 ng/mL, no wash
[9] = target: Human chorionic gonadotropin (human) (UniProt P01215); assay: multiplex sandwich, MAB602 capture beads; hCG 62 ng/mL, no wash
[10] = target: Human chorionic gonadotropin (human) (UniProt P01215); assay: multiplex sandwich, MAB602 capture beads; hCG 0.5 ng/mL, no wash
[11] = target: Human chorionic gonadotropin (human) (UniProt P01215); assay: multiplex sandwich, MAB602 capture beads; hCG 1000 ng/mL, washed
[12] = target: Human chorionic gonadotropin (human) (UniProt P01215); assay: multiplex sandwich, MAB602 capture beads; hCG 250 ng/mL, no wash
[13] = target: Human chorionic gonadotropin (human) (UniProt P01215); assay: multiplex sandwich, MAB602 capture beads; hCG 2000 ng/mL, no wash
Alpha fetoprotein [14] = target: Alpha fetoprotein (UniProt P02771); assay: MAB602 capture beads, flow cytometry; AFP 0.0 ng/mL, anti-hCG probe
[15] = target: Human chorionic gonadotropin (human) (UniProt P01215); assay: MAB602 capture beads, flow cytometry; hCG 0.0 ng/mL, anti-hCG probe
Alpha fetoprotein [16] = target: Alpha fetoprotein (UniProt P02771); assay: MAB602 capture beads, flow cytometry; AFP 10.0 ng/mL, anti-hCG probe
[17] = target: Human chorionic gonadotropin (human) (UniProt P01215); assay: MAB602 capture beads, flow cytometry; hCG 1000.0 ng/mL, anti-hCG probe
Alpha fetoprotein [18] = target: Alpha fetoprotein (UniProt P02771); assay: anti-AFP capture beads, flow cytometry; AFP 1000.0 ng/mL, anti-hCG probe
[19] = target: Human chorionic gonadotropin (human) (UniProt P01215); assay: multiplex no-wash sandwich, MAB602 beads; Negative serum, hCG 10 mU/mL as printed
Alpha fetoprotein [20] = target: Alpha fetoprotein (UniProt P02771); assay: multiplex sandwich, S10473 capture beads; AFP 2 ng/mL, washed
Alpha fetoprotein [21] = target: Alpha fetoprotein (UniProt P02771); assay: multiplex sandwich, S10473 capture beads; AFP 4 ng/mL, washed
Alpha fetoprotein [22] = target: Alpha fetoprotein (UniProt P02771); assay: multiplex sandwich, S10473 capture beads; AFP 0 ng/mL, no wash
Alpha fetoprotein [23] = target: Alpha fetoprotein (UniProt P02771); assay: multiplex sandwich, S10473 capture beads; AFP 62 ng/mL, washed
Alpha fetoprotein [24] = target: Alpha fetoprotein (UniProt P02771); assay: multiplex sandwich, S10473 capture beads; AFP 16 ng/mL, no wash
Alpha fetoprotein [25] = target: Alpha fetoprotein (UniProt P02771); assay: multiplex sandwich, S10473 capture beads; AFP 125 ng/mL, no wash
Alpha fetoprotein [26] = target: Alpha fetoprotein (UniProt P02771); assay: multiplex sandwich, S10473 capture beads; AFP 0.25 ng/mL, no wash
[27] = target: Human chorionic gonadotropin (human) (UniProt P01215); assay: MAB602 capture beads, flow cytometry; hCG 0.1 ng/mL, anti-AFP probe
[28] = target: Human chorionic gonadotropin (human) (UniProt P01215); assay: MAB602 capture beads, flow cytometry; hCG 10.0 ng/mL, anti-AFP probe
[29] = target: Human chorionic gonadotropin (human) (UniProt P01215); assay: MAB602 capture beads, flow cytometry; hCG 100.0 ng/mL, anti-AFP probe
Alpha fetoprotein [30] = target: Alpha fetoprotein (UniProt P02771); assay: multiplex no-wash sandwich, S10473 beads; Unknown serum, AFP computed 39.59 U/mL
[31] = target: Neutravidin (deglycosylated avidin) (UniProt P02701); assay: single-analyte, Neutravidin bead 70/40 without peptide, flow cytometry
Peptide 1 …-biotin = assay: multiplex 9-peptide bead set, flow cytometry; MAB 384-Bodipy 15.5 ug/mL
Peptide 2 …-biotin = assay: as above
Peptide 3 …-biotin = assay: as above
Peptide 4 …-biotin = assay: as above
[32] = target: Peptide 5 …-biotin (human); assay: as above
Peptide 6 …-biotin = assay: as above
Peptide 7 …-biotin = assay: as above
Peptide 8 …-biotin = assay: as above
Peptide 9 …-biotin = assay: as above

Sequence of UniProt P01215 (P01215 25-116, chain 1 of 2, other chains not shown): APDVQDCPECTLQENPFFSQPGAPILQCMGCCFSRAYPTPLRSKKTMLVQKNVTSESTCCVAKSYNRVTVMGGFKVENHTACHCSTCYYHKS
Sequence of UniProt P02771 (P02771 19-609 limits assumed): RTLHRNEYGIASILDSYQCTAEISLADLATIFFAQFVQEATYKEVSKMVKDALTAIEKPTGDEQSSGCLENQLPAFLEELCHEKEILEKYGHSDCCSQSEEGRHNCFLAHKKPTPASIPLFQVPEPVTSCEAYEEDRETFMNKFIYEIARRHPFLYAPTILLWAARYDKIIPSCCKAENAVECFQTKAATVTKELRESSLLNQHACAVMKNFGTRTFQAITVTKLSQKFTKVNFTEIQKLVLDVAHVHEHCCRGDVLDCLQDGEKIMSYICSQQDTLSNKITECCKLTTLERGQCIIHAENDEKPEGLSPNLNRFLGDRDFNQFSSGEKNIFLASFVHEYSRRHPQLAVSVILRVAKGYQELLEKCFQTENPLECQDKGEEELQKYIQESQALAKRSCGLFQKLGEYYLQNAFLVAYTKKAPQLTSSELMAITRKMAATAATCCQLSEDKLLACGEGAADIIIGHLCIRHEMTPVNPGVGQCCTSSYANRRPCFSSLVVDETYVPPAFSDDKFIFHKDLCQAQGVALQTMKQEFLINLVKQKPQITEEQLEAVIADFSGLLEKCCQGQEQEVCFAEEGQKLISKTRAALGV
Sequence of UniProt P02701 (P02701 25-152 limits assumed): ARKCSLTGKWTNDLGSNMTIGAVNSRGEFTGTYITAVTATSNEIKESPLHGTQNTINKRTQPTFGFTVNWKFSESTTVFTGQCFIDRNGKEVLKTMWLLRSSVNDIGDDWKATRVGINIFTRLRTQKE

MIF of Fm [1]: 258 and 254 | MIF of Fm [2]: 330 | MIF of Fm [3]: 2530 | MIF of Fm [4]: 1120 | MIF of Fm [5]: 8790 | MIF of Fm [6]: 175 | MIF of Fm [7]: 2440 | MIF of Fm [8]: 2510 | MIF of Fm [9]: 2420 | MIF of Fm [10]: 166 | MIF of Fm [11]: 3160 | MIF of Fm [12]: 1520 | MIF of Fm [13]: 491 | MIF of Fm (Alpha fetoprotein [14]): 71 | MIF of Fm [15]: 48 | MIF of Fm (Alpha fetoprotein [16]): 47 | MIF of Fm [17]: 792 | MIF of Fm (Alpha fetoprotein [18]): 57 | MIF AVG [19]: 7.33 | MIF of FL1 [19]: 8 and 7
Substance: AB633 affinity purified polyclonal anti-hCG antibody, Bodipy FL-CASE labeled

MIF of Fm (Alpha fetoprotein [20]): 59 | MIF of Fm (Alpha fetoprotein [21]): 108 | MIF of Fm (Alpha fetoprotein [22]): 15 | MIF of Fm (Alpha fetoprotein [23]): 814 | MIF of Fm (Alpha fetoprotein [24]): 359 | MIF of Fm (Alpha fetoprotein [25]): 1060 | MIF of Fm (Alpha fetoprotein [26]): 17 | MIF of Fm [27]: 49 | MIF of Fm [28]: 47 | MIF of Fm [29]: 48 | MIF AVG (Alpha fetoprotein [30]): 276 | MIF of FL1 (Alpha fetoprotein [30]): 268 and 274 and 286
Substance: M20077 affinity purified polyclonal anti-AFP antibody, Bodipy FL-CASE labeled

MIF of Fm [31]: 60 | MIF of Fm (Peptide 1 …-biotin): 28 | MIF of Fm (Peptide 2 …-biotin): 36 | MIF of Fm (Peptide 3 …-biotin): 36 | MIF of Fm (Peptide 4 …-biotin): 35 | MIF of Fm [32]: 1350 | MIF of Fm (Peptide 6 …-biotin): 67 | MIF of Fm (Peptide 7 …-biotin): 35 | MIF of Fm (Peptide 8 …-biotin): 32 | MIF of Fm (Peptide 9 …-biotin): 29
Substance: MAB 384, Bodipy FL-X labeled (antibody)
